Patent US20160264664A1
Values joined by “and” are separate entries in the source; they are usually repeats but may differ in a detail not shown here. Identical values can stand only once.

Tests used:
[1] = target: human chemokine receptor CXCR4 (human) (UniProt P61073); assay: flow cytometry, stable CXCR4 CAKI clone vs CAKI WT cells
[2] = target: human chemokine receptor CXCR4 (human) (UniProt P61073); assay: flow cytometry, 12G5 then PE goat anti-mouse IgG, on the stable CAKI/CXCR4 clone; the control panel CAKI WT prints MCF:1089
[3] = target: human chemokine receptor CXCR4 (human) (UniProt P61073); assay: flow cytometry, 12G5 then PE goat anti-mouse IgG, on HEK293 cells transiently transfected with pVAX1-CXCR4; the control panel HEK293 WT prints MCF:3918
[4] = target: human chemokine receptor CXCR4 (human) (UniProt P61073); assay: flow cytometry, pVAX1-hCXCR4 transfected HEK293 vs non-transfected HEK293 cells
[5] = target: human chemokine receptor CXCR4 (human) (UniProt P61073); assay: ELISA, periplasmic extract on CXCR4 membrane vesicles, anti-Myc detection
mouse P2X7 (mouse) [6] = target: T1, mouse P2X7 (mouse) (UniProt Q9Z1M0); assay: cell-based or functional assay
T1 sequence: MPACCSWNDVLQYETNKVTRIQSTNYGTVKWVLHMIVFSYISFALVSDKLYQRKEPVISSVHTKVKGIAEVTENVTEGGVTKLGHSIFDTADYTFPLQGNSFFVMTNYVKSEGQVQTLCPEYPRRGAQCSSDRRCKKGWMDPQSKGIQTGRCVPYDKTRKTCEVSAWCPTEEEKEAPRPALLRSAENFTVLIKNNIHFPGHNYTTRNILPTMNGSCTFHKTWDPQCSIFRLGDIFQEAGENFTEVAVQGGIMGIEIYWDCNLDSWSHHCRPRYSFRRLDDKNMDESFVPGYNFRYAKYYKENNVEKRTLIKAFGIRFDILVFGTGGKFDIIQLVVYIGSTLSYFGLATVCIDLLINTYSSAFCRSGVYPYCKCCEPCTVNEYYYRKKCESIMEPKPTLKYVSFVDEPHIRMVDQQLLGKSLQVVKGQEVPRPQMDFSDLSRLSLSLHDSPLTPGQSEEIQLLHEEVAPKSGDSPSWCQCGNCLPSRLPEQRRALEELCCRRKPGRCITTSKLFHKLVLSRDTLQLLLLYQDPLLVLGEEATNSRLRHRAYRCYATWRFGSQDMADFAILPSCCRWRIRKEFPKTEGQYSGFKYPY

mouse P2X7 (mouse) [7] = target: T1, mouse P2X7 (mouse); assay: flow cytometry, purified Nanobody titrated on mP2X7-CHO cells

Chain of human chemokine receptor CXCR4 (human) (P61073 whole entry): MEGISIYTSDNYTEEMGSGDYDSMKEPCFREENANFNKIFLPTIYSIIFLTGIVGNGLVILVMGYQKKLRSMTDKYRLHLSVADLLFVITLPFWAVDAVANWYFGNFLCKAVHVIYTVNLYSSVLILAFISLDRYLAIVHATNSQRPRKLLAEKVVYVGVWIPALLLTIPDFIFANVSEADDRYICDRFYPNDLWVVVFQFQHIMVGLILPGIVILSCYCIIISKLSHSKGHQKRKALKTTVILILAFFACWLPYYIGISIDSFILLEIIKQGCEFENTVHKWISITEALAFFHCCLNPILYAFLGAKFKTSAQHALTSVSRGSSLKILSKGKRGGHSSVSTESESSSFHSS

fluorescence shift over non-transfected camelid cells [1]	MCF [2]	MCF [3]	fluorescence intensity shift of transfected over non-transfected cells [4]	ELISA signal on hCXCR4 membrane vesicles over control membrane vesicles [5]	percentage of cells remaining CD62L positive after ATP or NAD (Yac-1 cells, control) (mouse P2X7 (mouse) [6])	maximum MCF value (mouse P2X7 (mouse) [7])	Substance
114 fold	125000	152000	38 fold				Human CXCR4 specific monoclonal antibody 12G5 (R&D Systems MAB170)
				1.1	2% and 20%	314 to 355 MCF	irrelevant control Nanobody (VHH)
